Tested on: T1, Cas13f v3 (v2+D160A&D642A) (synthetic construct)
T1 sequence: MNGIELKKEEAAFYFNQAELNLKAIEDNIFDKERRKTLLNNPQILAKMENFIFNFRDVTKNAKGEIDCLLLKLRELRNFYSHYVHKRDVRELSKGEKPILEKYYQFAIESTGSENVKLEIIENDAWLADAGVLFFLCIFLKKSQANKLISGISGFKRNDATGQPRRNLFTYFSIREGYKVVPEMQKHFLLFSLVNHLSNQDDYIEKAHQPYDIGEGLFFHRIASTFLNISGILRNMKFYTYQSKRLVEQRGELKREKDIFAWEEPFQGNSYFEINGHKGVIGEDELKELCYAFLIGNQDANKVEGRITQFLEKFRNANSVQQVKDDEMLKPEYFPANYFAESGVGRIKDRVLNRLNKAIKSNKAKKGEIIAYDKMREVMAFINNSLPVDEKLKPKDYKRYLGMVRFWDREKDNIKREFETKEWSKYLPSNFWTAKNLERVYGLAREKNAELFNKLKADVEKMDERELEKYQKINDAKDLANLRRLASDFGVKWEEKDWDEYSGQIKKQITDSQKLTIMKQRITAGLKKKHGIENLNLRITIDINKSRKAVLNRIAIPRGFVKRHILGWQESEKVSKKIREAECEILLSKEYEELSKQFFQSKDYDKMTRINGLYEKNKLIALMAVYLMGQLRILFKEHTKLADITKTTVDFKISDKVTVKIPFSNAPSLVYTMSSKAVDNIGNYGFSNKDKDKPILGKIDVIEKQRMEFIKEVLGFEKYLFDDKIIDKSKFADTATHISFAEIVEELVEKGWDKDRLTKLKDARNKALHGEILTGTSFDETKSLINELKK
Assay: cell_activity
Conditions: HEK293T; non-targeting spacer control

With “non-targeting gRNA (DR-spacer-DR) ; mCherry reporter mRNA” the activity (RFP MFI (normalization reference)) was 1.
